# Columns and labels:
# [1] = molecular target: T1, eAPP230–624 (Homo sapiens, UniProt P05067); test: Intrinsic tryptophan fluorescence of eAPP230–624; assay type: binding; details: for inhibition of eAPP dimerization (in words): legend of titration of 0.64 µM eAPP230–624 with 0–60 µM fragment; for log(EC50), EC50 = molar ratio Aβ to eAPP230–624 that invokes half the response: quenching at 375 nm, equation 4, n constrained to 7, R^2 = 0.88, differences not significant at p<0.05
# T1 construct: made in house
# Method: The excitation spectra of the intrinsic tryptophan fluorescence were recorded using either a Shimadzu RF-530PC (Shimadzu Scientific Instruments) or a Spectramax XPS spectrophotometer (Molecular Devices).
# Full emission spectra were measured with the Shimadzu RF-530PC using a 3 ml quartz cuvette, a 5 nm slit width and protein concentrations between 0.2–0.6 µM. […] For these larger dilutions, control titrations with the protein alone were used to generate a scaling matrix where the scale factor was both a function of wavelength and dilution. […] A similar scaling matrix was used to correct for the effect of dilution with DMSO. […] All titrations were performed at 24°C. The oligomers were stored on ice during the experiment.
# These concentrations are analogous to concentrations used to create complexes for the small angle x-ray scattering analysis. The incubated material was diluted with PBS so that the final protein concentration was 0.5 µM. The spectra were recorded with the Shimadzu […].
# For experiments with the Spectromax XPS plate reader, an excitation wavelength of 295 nm was used. This excitation wavelength was chosen to minimize both the contribution of tyrosine in the protein and the background fluorescence of the 96-well plates (Costar #3915).
# For the quenching experiments, the data were analyzed by constructing Stern-Volmer plots, F0/F vs. Q, where Fo is the intensity of the fluorescence at zero concentration, F is the intensity of the fluorescence, and Q is the concentration of the quenching agent. When quenching is through either a static (binding) or dynamic (collisional) mechanism this plot is linear and follows the equation: [drawing 1] (1) where Ksv is the quenching constant. When both processes are present the Stern-Volmer plot is quadratic: [drawing 2] (2) where KD is the equilibrium constant associated with dynamic quenching and Ks is the equilibrium constant associated with static quenching. All parameters were determined using PRISM (GraphPad) and the appropriate non-linear curve fitting routine.
# The centroid wavelength (λc) was calculated as: [drawing 3] (3) where I(λi) is the intensity observed for the wavelength (λi). The range of wavelengths was 310–390 nm.
# [2] = molecular target: T1, eAPP230–624; test: Small-angle X-ray scattering (SAXS) of eAPP230–624 complexes; assay type: binding; details: for Dmax / Rg: SAXS, GNOM, eAPP230–624 with peptide; for Dmax: maximum dimension, max. estimated error ±10 Å; for Rg: radius of gyration, max. estimated error ±2 Å
# Method: The samples were incubated on ice for 20 minutes and then concentrated to 50 µl with 10-kDa cutoff concentrators (Millipore). […] Samples of the filtrates were used for buffer subtraction.
# The samples were then concentrated and purified with a Superdex S200 size-exclusion column with 20 mM Tris pH 7.4, 100 mM sodium chloride and 2 mM EDTA. Samples of the protein buffer from the size-exclusion columns were used for buffer subtraction.
# Data collection and processing
# Small-angle X-ray scattering data were collected using protein concentrations in the range of 0.5–3 mg/ml and an X-ray wavelength of 1.11 Å at beam line 12.3.1 (Advanced Light Source). Data were integrated with software customized for the beam line and processed with the program PRIMUS [30]. The program GNOM [31] was used to calculate the maximum dimension and the radius of gyration and to estimate the intensity of the scattering at zero angle for higher concentration samples.
# [3] = molecular target: MBP-eAPP_(230–624), maltose binding protein fusion protein containing residues 230–624 (UniProt P05067); test: small-angle X-ray scattering (SAXS); 150 µl MBP-eAPP230-624 (≈0.5 mg/ml) diluted with 400 µl of peptide solution, 20 minutes on ice, concentrated to 50 µl with 10-kDa cutoff concentrators
# [4] = molecular target: TRX-eAPP_(290–624), thioredoxin fusion protein containing residues 290–624 of APP695 (UniProt P05067); test: small-angle X-ray scattering (SAXS); eAPP fragment incubated on ice with Aβ oligomers or Aβ fragments (peptide less than 10 µM), concentrated and purified on Superdex S200 in 20 mM Tris pH 7.4, 100 mM sodium chloride, 2 mM EDTA
# [5] = molecular target: the molecule itself; test: small-angle X-ray scattering (SAXS); eAPP fragment alone; 0.5–3 mg/ml, X-ray wavelength 1.11 Å; relative mass from I(0) against albumin and the eAPP fragment dimer
# [6] = incubated, 1:6 molar ratio, 0.5 µM eAPP230–624
molecule,measurement,setting,value
"7-kDa Aβ1-40: 7-kDa Aβ1-40 dimers, prepared by sonication and 15 minutes incubation",inhibition of eAPP dimerization (in words),[1],inhibit eAPP dimerization
same,MWcalc/MWseq,"[2]; SAXS relative mass, MWseq 45-kDa for eAPP230–624, max. error ±0.2, monomer around 1.3, protein alone 2.0",1.2
same,Dmax,[2],180 Å
same,Rg,[2],49 Å
13-kDa Aβ1-40: 13-kDa Aβ1-40 oligomer pool,more oligomers that can bind eAPP (ratio of amplitudes A),"[1]; from ratio of amplitudes of maximal response, vs 70-kDa pools, Spectramax XPS",about 150%
same,blue-shift in the centroid wavelength,[1]; [6],did not produce a significant blue shift
same,fluorescence intensity relative to eAPP230–624,[1]; [6],80%
same,"log(EC50), EC50 = molar ratio Aβ to eAPP230–624 that invokes half the response",[1]; Spectramax XPS,1.27±0.02
"13-kDa Aβ1-42: 13-kDa Aβ1-42 oligomers, predominately trimers",increase in intensity of the fluorescence,"[1]; rapid dilution, final 1:27 molar ratio, 0.64 µM eAPP230–624, Shimadzu RF-530PC",114%
20-kDa Aβ1-42: 20-kDa Aβ1-42 oligomers,Dmax,[2],170 Å
same,Rg,[2],46 Å
70-kDa Aβ1-40: 70-kDa Aβ1-40 oligomer pool,"log(EC50), EC50 = molar ratio Aβ to eAPP230–624 that invokes half the response",[1]; Spectramax XPS,1.32±0.01
Aβ1-42 species greater than 200-kDa: Aβ1-42 species greater than 200-kDa in size,effect on intrinsic fluorescence at 375 nm (in words),"[1]; Spectramax XPS, increasing molar ratio, up to 120 µM Aβ",slight enhancement of the intrinsic fluorescence
same,change in fluorescence spectra (in words),[1]; [6],relatively minor change in the fluorescence spectra
"Aβ5-14: Aβ fragment (RHDSGYEVHH; Amyloid-beta protein 42; UniProt P05067 676-685, looked up, fragment)",inhibition of eAPP dimerization (in words),[1],inhibit eAPP dimerization
Aβ10-20 (peptide),MWcalc/MWseq (apparent mass of the sample over the sequence mass of the eAPP fragment),[3],1.3
Aβ11-17 (peptide),MWcalc/MWseq (apparent mass of the sample over the sequence mass of the eAPP fragment),[4],1.2
"Aβ12-24: Aβ fragment (VHHQKLVFFAEDV; Amyloid-beta protein 42; UniProt P05067 683-695, looked up, fragment)",inhibition of eAPP dimerization (in words),[1],inhibit eAPP dimerization
Aβ12-28: Aβ fragment,inhibition of eAPP dimerization (in words),[1],inhibit eAPP dimerization
same,pattern of changes in the intrinsic fluorescence (in words),"[1]; titration of 0.64 µM eAPP230–624, 345 nm",acted like Aβ1-40 dimers in terms of the changes in the intrinsic fluorescence
"TRX-eAPP_(290–624), thioredoxin fusion protein containing residues 290–624 of APP695 (domain or fragment, UniProt P05067-4 290-624, looked up, numbers count on: APP695; Dimer by SAXS; source: expressed and purified as previously described [18]) PTTAASTPDAVDKYLETPGDENEHAHFQKAKERLEAKHRERMSQVMREWEEAERQAKNLPKADKKAVIQHFQEKVESLEQEAANERQQLVETHMARVEAMLNDRRRLALENYITALQAVPPRPRHVFNMLKKYVRAEQKDRQHTLKHFEHVRMVDPKKAAQIRSQVMTHLRVIYERMNQSLSLLYNVPAVAEEIQDEVDELLQKEQNYSDDVLANMISEPRISYGNDALMPSLTETKTTVELLPVNGEFSLDDLQPWHSFGADSVPANTENEVEPVDARPAADRGLTTRPGSGLTNIKTEEISEVKMDAEFRHDSGYEVHHQKLVFFAEDVGSNK",stoichiometry N,[5],2
"MBP-eAPP_(230–624), maltose binding protein fusion protein containing residues 230–624 (domain or fragment, UniProt P05067-4 230-624, looked up, numbers count on: APP695; Dimer by SAXS; source: expressed and purified as previously described [18]) EEEEVAEVEEEEADDDEDDEDGDEVEEEAEEPYEEATERTTSIATTTTTTTESVEEVVRVPTTAASTPDAVDKYLETPGDENEHAHFQKAKERLEAKHRERMSQVMREWEEAERQAKNLPKADKKAVIQHFQEKVESLEQEAANERQQLVETHMARVEAMLNDRRRLALENYITALQAVPPRPRHVFNMLKKYVRAEQKDRQHTLKHFEHVRMVDPKKAAQIRSQVMTHLRVIYERMNQSLSLLYNVPAVAEEIQDEVDELLQKEQNYSDDVLANMISEPRISYGNDALMPSLTETKTTVELLPVNGEFSLDDLQPWHSFGADSVPANTENEVEPVDARPAADRGLTTRPGSGLTNIKTEEISEVKMDAEFRHDSGYEVHHQKLVFFAEDVGSNK",stoichiometry N,[5],2
"eAPP_(230–624), fragment of the APP ectodomain containing residues 230–624 (domain or fragment, UniProt P05067-4 230-624, looked up, numbers count on: APP695; Dimer by SAXS; source: expressed and purified as previously described [18]) EEEEVAEVEEEEADDDEDDEDGDEVEEEAEEPYEEATERTTSIATTTTTTTESVEEVVRVPTTAASTPDAVDKYLETPGDENEHAHFQKAKERLEAKHRERMSQVMREWEEAERQAKNLPKADKKAVIQHFQEKVESLEQEAANERQQLVETHMARVEAMLNDRRRLALENYITALQAVPPRPRHVFNMLKKYVRAEQKDRQHTLKHFEHVRMVDPKKAAQIRSQVMTHLRVIYERMNQSLSLLYNVPAVAEEIQDEVDELLQKEQNYSDDVLANMISEPRISYGNDALMPSLTETKTTVELLPVNGEFSLDDLQPWHSFGADSVPANTENEVEPVDARPAADRGLTTRPGSGLTNIKTEEISEVKMDAEFRHDSGYEVHHQKLVFFAEDVGSNK",stoichiometry N,[5],2

# Reference: PMC3386930, “Altering APP Proteolysis: Increasing sAPPalpha Production by Targeting Dimerization of the APP Ectodomain” (PLoS ONE, 2012)
